Like-named read-outs stand apart in the source and are kept apart here.
Key:
[1] = biological target: T1, Homo sapiens factor Bb protein (human, UniProt P00751 260-764); assay: SPR single cycle kinetics, IgG on Protein A chip, factor Bb analyte
T1 construct: Bought from CompTech (A155); also called complement factor Bb; human factor Bb
Procedure: (§1) In order to assess the binding of all humanized variants, single cycle kinetic analysis was performed on supernatants from transfected cell cultures. […] All single cycle kinetic experiments were run at 25° C. with HBS-P+running buffer (pH 7. 4) (GE Healthcare, Little Chalfont, UK).
(§2) Antibodies were diluted in running buffer to a final concentration of 1 μg/ml, based on concentrations assessed by ELISA titer. At the start of each cycle, antibodies were loaded onto Fc2, Fc3 and Fc4 of the Protein A chip (GE Healthcare, Little Chalfont, UK). IgGs were captured at a flow rate of 10 μl/min to give an immobilization level (RL) of ˜63 RU, the theoretical value to obtain an Rmax of ˜50 RU. The surface was then allowed to stabilize. Single cycle kinetic data was obtained with factor Bb (CompTech, Tyler, USA) as the analyte at a flow rate of 30 μl/min to minimize any potential mass transport limitations. Multiple repeats with the reference chimeric antibody were performed to check the stability of the surface and analyte over the kinetic cycles. The signal from the reference channel Fc1 (no antibody) was subtracted from that of Fc2, Fc3 and Fc4 to correct for differences in non-specific binding to a reference surface. A four point, two-fold dilution range from 0. 78 nM to 6. 25 nM factor Bb without regeneration between each concentration was used. The association phase for the four injections of increasing concentrations of factor Bb was monitored for 200 seconds each time and a single dissociation phase was measured for 200 seconds following the last injection of factor Bb. Regeneration of the Protein A surface was conducted using two injections of 10 mM glycine-HCL pH 1. 5.
Single cycle kinetics using cell culture supernatants were performed as described above.

[2] = biological target: T1, Homo sapiens factor Bb protein; assay: SPR single cycle kinetics; ratio against VH0/Vκ0
Procedure: All single cycle kinetic experiments were run at 25° C. with HBS-P+running buffer (pH 7. 4) (GE Healthcare, Little Chalfont, UK).
as §2
Single cycle kinetics using cell culture supernatants were performed as described above. […] The relative KD was calculated by dividing the KD of the VH0/Vκ0 reference antibody by that of the humanized variant assayed in the same experiment.

[3] = biological target: T1, Homo sapiens factor Bb protein; assay: SPR single cycle kinetics; ratio against VH0/Vκ0; remark: listed apart in the source
Procedure: as §1, §2
(§3) The sensorgrams and fitted data for the single cycle kinetics are shown in FIGS. 1A-1D and the kinetic parameters measured for the interaction of factor Bb with each antibody are shown in Table 7. The relative KD was calculated by dividing the KD of the VH0/Vκ0 reference antibody by that of the humanized variant assayed in the same experiment.

[4] = biological target: T1, Homo sapiens factor Bb protein; assay: SPR single cycle kinetics, IgG on Protein A chip, factor Bb analyte; remark: listed apart in the source
Procedure: as §1, §2, §3

T1 sequence (P00751 260-764 limits assumed): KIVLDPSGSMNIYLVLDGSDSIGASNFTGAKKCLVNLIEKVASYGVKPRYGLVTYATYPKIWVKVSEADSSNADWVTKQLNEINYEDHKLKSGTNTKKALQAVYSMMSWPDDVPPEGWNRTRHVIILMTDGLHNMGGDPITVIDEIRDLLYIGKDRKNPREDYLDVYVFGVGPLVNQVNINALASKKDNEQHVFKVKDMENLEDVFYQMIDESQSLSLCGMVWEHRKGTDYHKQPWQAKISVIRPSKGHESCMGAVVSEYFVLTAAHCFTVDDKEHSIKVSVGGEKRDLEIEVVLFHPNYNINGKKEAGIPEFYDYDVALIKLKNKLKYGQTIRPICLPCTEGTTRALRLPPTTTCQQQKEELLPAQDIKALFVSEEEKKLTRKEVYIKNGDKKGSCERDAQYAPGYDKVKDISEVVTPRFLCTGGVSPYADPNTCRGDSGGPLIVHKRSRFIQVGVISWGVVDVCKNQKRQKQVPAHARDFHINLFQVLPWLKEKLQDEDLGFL

Kd [1] [nM] | koff [1] [s⁻¹] | kon [1] [M⁻¹ s⁻¹] | Relative KD [2] | Relative KD [3] | Kd [4] [nM] | koff [4] [s⁻¹] | kon [4] [M⁻¹ s⁻¹] | Binder
2.27 | 0.00128 | 563000 | 1.28 |  |  |  |  | VH0/Vκ3 (antibody, V domains shown, constant regions not restated, the humanisation used IgG4v1 heavy chain and kappa light chain vectors) VH: EVQLVESGGALVKPGGSLKLSCAASGFTFSNYAMSWVRQTPEKRLEWVATISNRGSYTYYPDSVKGRFTISRDNAKNTLYLQMSSLRSEDTALYYCARERPMDYWGQGTSVTVSS VL: DIQMTQSPSTLSASVGDRVTITCKASQDVGTAVAWYQQKPGQPPKLLIYWASTRHTGVPDRFSGSGSGTDFTLTISSLQAEDFAVYFCHQHSSNPLTFGQGTKLEIK
 |  |  |  | 1.76 | 3.09 | 0.00116 | 376000 | VH1/Vκ0 (control) (antibody, V domains shown) VH: EVQLVESGGGLVKPGGSLRLSCAASGFTFSNYAMSWVRQAPGKGLEWVATISNRGSYTYYPDSVKGRFTISRDNAKNSLYLQMSSLRSEDTALYYCARERPMDYWGQGTSVTVSS VL: DIVMTQSHKFMSTSVGDRVSITCKASQDVGTAVAWYQQKPGQSPKLLIYWASTRHTGVPDRFTGSGSGTDFTLTITNVQSEDLAVYFCHQHSSNPLTFGAGTKLELK
130 | 0.0173 | 133000 | 73.5 |  |  |  |  | VH5/Vκ6 (antibody, V domains shown, Redesigned variant; cloned into the appropriate expression vector (IgG4v1 and kappa were used in the first round), HEK EBNA supernatant) VH: EVQLVESGGGLVKPGGSLRLSCAASGFTFSNYAMSWVRQTPEKRLEWVATISNRGSYTYYPDSVKGRFTISRDNAKNSLYLQMSSLRSEDTALYYCARERPMDYWGQGTSVTVSS VL: DIVMTQSPSFLSASVGDRVTITCKASQDVGTAVAWYQQKPGKAPKLLIYWASTRHTGVPDRFTGSGSGTDFTLTISSLQSEDFAVYFCHQHSSNPLTFGQGTKLEIK
 |  |  |  | 9.83 | 17.3 | 0.0046 | 267000 | VH3/Vκ4 (antibody, V domains shown) VH: EVQLVESGGGLVKPGGSLRLSCAASGFTFSNYAMSWVRQAPGKGLEWVATISNRGSYTYYADSVKGRFTISRDNAKNSLYLQMNSLRAEDTALYYCARERPMDYWGQGTLVTVSS VL: DIQMTQSPSTLSASVGDRVTITCRASQDVGTAVAWYQQKPGQPPKLLIYWASTRHTGVPDRFSGSGSGTDFTLTISSLQAEDFAVYYCHQHSSNPLTFGQGTKLEIK
 |  |  |  | 8.98 | 15.8 | 0.00451 | 285000 | VH3/Vκ5 (antibody, V domains shown) VH: EVQLVESGGGLVKPGGSLRLSCAASGFTFSNYAMSWVRQAPGKGLEWVATISNRGSYTYYADSVKGRFTISRDNAKNSLYLQMNSLRAEDTALYYCARERPMDYWGQGTLVTVSS VL: DIQMTQSPSTLSASVGDRVTITCRASQDVGTAVAWYQQKPGQPPKLLIYWASTRHTGVPDRFSGSGSGTDFTLTISSLQAEDFATYYCHQHSSNPLTFGQGTKLEIK
2.37 | 0.00126 | 534000 | 1.34 |  |  |  |  | VH0/Vκ6 (antibody, V domains shown, Control antibody of the redesign round; cloned into the appropriate expression vector (IgG4v1 and kappa were used in the first round), HEK EBNA supernatant) VH: EVQLVESGGALVKPGGSLKLSCAASGFTFSNYAMSWVRQTPEKRLEWVATISNRGSYTYYPDSVKGRFTISRDNAKNTLYLQMSSLRSEDTALYYCARERPMDYWGQGTSVTVSS VL: DIVMTQSPSFLSASVGDRVTITCKASQDVGTAVAWYQQKPGKAPKLLIYWASTRHTGVPDRFTGSGSGTDFTLTISSLQSEDFAVYFCHQHSSNPLTFGQGTKLEIK
2.11 | 0.00105 | 496000 | 1.19 |  |  |  |  | VH0/Vκ7 (antibody, V domains shown, Control antibody of the redesign round; cloned into the appropriate expression vector (IgG4v1 and kappa were used in the first round), HEK EBNA supernatant) VH: EVQLVESGGALVKPGGSLKLSCAASGFTFSNYAMSWVRQTPEKRLEWVATISNRGSYTYYPDSVKGRFTISRDNAKNTLYLQMSSLRSEDTALYYCARERPMDYWGQGTSVTVSS VL: DIQMTQSPSTLSASVGDRVTITCKASQDVGTAVAWYQQKPGKAPKLLIYWASTRHTGVPDRFSGSGSGTDFTLTISSLQAEDFAVYFCHQHSSNPLTFGQGTKLEIK
